Measurements published in IntAct's records for PubMed 31515488.

B1: Melanoma-associated antigen F1 (Homo sapiens), Q9HAY2 (parent)
chain: MLQTPESRGLPVPQAEGEKDGGHDGETRAPTASQERPKEELGAGREEGAAEPALTRKGARALAAKALARRRAYRRLNRTVAELVQFLLVKDKKKSPITRSEMVKYVIGDLKILFPDIIARAAEHLRYVFGFELKQFDRKHHTYILINKLKPLEEEEEEDLGGDGPRLGLLMMILGLIYMRGNSAREAQVWEMLRRLGVQPSKYHFLFGYPKRLIMEDFVQQRYLSYRRVPHTNPPEYEFSWGPRSNLEISKMEVLGFVAKLHKKEPQHWPVQYREALADEADRARAKARAEASMRARASARAGIHLW
B2: Mothers against decapentaplegic homolog 4 (Homo sapiens), Q13485 (parent)
chain: MDNMSITNTPTSNDACLSIVHSLMCHRQGGESETFAKRAIESLVKKLKEKKDELDSLITAITTNGAHPSKCVTIQRTLDGRLQVAGRKGFPHVIYARLWRWPDLHKNELKHVKYCQYAFDLKCDSVCVNPYHYERVVSPGIDLSGLTLQSNAPSSMMVKDEYVHDFEGQPSLSTEGHSIQTIQHPPSNRASTETYSTPALLAPSESNATSTANFPNIPVASTSQPASILGGSHSEGLLQIASGPQPGQQQNGFTGQPATYHHNSTTTWTGSRTAPYTPNLPHHQNGHLQHHPPMPPHPGHYWPVHNELAFQPPISNHPAPEYWCSIAYFEMDVQVGETFKVPSSCPIVTVDGYVDPSGGDRFCLGQLSNVHRTEAIERARLHIGKGVQLECKGEGDVWVRCLSDHAVFVQSYYLDREAGRAPGDAVHKIYPSAYIKVFDLRQCHRQMQQQAATAQAAAAAQAAAVAGNIPGPGSVGGIAPAISLSAAAGIGVDDLRRLCILRMSFVKGWGPDYPRQSIKETPCWIEIHLHRALQLLDEVLHTMPIADPQPLD
partner: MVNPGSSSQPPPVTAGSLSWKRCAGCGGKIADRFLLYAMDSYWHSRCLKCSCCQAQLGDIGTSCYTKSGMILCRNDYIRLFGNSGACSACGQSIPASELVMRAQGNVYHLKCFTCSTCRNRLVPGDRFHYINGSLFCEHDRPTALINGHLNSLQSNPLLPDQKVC
B3: Calcium-binding and coiled-coil domain-containing protein 2 (Homo sapiens), Q13137 (parent)
chain: MEETIKDPPTSAVLLDHCHFSQVIFNSVEKFYIPGGDVTCHYTFTQHFIPRRKDWIGIFRVGWKTTREYYTFMWVTLPIDLNNKSAKQQEVQFKAYYLPKDDEYYQFCYVDEDGVVRGASIPFQFRPENEEDILVVTTQGEVEEIEQHNKELCKENQELKDSCISLQKQNSDMQAELQKKQEELETLQSINKKLELKVKEQKDYWETELLQLKEQNQKMSSENEKMGIRVDQLQAQLSTQEKEMEKLVQGDQDKTEQLEQLKKENDHLFLSLTEQRKDQKKLEQTVEQMKQNETTAMKKQQELMDENFDLSKRLSENEIICNALQRQKERLEGENDLLKRENSRLLSYMGLDFNSLPYQVPTSDEGGARQNPGLAYGNPYSGIQESSSPSPLSIKKCPICKADDICDHTLEQQQMQPLCFNCPICDKIFPATEKQIFEDHVFCHSL
partner: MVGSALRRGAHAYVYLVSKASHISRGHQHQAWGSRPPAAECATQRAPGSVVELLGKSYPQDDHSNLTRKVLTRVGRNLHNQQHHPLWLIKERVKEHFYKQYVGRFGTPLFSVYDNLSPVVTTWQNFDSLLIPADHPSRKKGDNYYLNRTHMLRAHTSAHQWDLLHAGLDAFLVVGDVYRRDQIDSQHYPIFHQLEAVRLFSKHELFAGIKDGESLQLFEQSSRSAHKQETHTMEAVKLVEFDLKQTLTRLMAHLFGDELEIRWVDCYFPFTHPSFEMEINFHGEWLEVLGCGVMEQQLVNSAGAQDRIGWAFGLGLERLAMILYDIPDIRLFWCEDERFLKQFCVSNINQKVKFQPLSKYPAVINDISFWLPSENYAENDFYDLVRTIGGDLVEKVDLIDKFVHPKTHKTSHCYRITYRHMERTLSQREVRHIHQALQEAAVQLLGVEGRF
B4: Growth arrest and DNA damage-inducible protein GADD45 gamma (Homo sapiens), O95257 (parent)
chain: MTLEEVRGQDTVPESTARMQGAGKALHELLLSAQRQGCLTAGVYESAKVLNVDPDNVTFCVLAAGEEDEGDIALQIHFTLIQAFCCENDIDIVRVGDVQRLAAIVGAGEEAGAPGDLHCILISNPNEDAWKDPALEKLSLFCEESRSVNDWVPSITLPE
partner: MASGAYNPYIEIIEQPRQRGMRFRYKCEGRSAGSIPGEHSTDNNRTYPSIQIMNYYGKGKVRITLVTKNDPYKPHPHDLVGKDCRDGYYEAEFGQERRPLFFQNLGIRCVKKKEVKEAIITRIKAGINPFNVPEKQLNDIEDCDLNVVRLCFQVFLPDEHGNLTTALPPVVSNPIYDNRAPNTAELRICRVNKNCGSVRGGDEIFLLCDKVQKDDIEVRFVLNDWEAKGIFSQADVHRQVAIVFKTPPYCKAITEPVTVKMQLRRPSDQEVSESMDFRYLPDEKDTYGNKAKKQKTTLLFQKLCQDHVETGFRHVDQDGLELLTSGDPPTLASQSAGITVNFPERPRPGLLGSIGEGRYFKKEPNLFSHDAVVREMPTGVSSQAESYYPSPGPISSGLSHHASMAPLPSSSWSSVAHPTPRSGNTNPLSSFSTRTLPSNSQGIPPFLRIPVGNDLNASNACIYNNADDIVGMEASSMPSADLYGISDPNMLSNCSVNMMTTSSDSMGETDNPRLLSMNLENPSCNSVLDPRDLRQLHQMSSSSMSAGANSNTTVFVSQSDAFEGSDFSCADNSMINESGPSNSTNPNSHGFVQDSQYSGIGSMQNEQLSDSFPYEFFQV

Variants of: B1
Details: with mdfi_human MDFI

Variant	effect of a mutation on the interaction
K93R	with no effect

Variants of: B2
Details: with lmo4_human LMO4, P61968

Variant	effect of a mutation on the interaction
N13S	with no effect
C324R	disrupting interaction strength
E330K	with no effect
V350D	disrupting interaction strength
G352R	with no effect
Y353S	with no effect
R361C	with no effect
L533R	with no effect

Variants of: B3
Details: with syfm_human FARS2, O95363

Variant	effect of a mutation on the interaction
E222K	with no effect

Variants of: B4
Details: with rel_human REL

Variant	effect of a mutation on the interaction
G112S	with no effect
